Drawing on article PMC10249358 (2023), this text covers percent of parent for 33 variants.

First the molecules themselves.
B1: FAM83G(111–126) peptide displayed on M13 phage [human] / GST-tagged merlin FERM domain [human] (parent complex)
chain 1: AEPLPSLEYWPQKSDR
chain 2: FTVRIVTMDAEMEFNCEMKWKGKDLFDLVCRTLGLRETWFFGLQYTIKDTVAWLKMDKKVLDHDVSKEEPVTFHFLAKFYPENAEEELVQEITQHLFFLQVKKQILDEKIYCPPEASVLLASYAVQAKYGDYDPSVHKRGFLAQEELLPKRVINLYQMTPEMWEERITAWYAEHRGRARDEAEMEYLKIAQDLEMYGVNYFAIRNKKGTELLLGVDALGLHIYDPENRLTPKISFPWNEIRNISYSDKEFTIKPLDKKIDVFKFNSSKLRVNKLILQLCIGNHDLFMRRRK
B2: NOP53(192–207) peptide displayed on M13 phage [human] / GST-tagged merlin FERM domain [human] (parent complex)
chain 1: FYDLWASDNPLDRPLV
chain 2: B1 chain 2

One assay covers variants of B1. The assay can be described thus: clonal phage ELISA; ratio of A450 on immobilized GST-merlin to A450 on GST, normalized to 100% of WT peptide; no-peptide phage control est. 29%; read off a plot.
Consider chain 1 S14A, for which the percent of parent is ~98 % binding.

With chain 1 R16A, the percent of parent is ~99 % binding.

On to chain 1 Q12A, for which the percent of parent was ~76 % binding.

Take chain 1 L7K: the percent of parent is ~84 % binding.

As to chain 1 P11K, the percent of parent was ~19 % binding.

For the variant chain 1 W10K, the percent of parent was ~23 % binding.

chain 1 L4K: the percent of parent is ~86 % binding.

In the case of chain 1 P5K, the percent of parent was ~68 % binding.

In the case of chain 1 K13A, the percent of parent is ~91 % binding.

For the variant chain 1 K13D, the percent of parent is ~81 % binding.

Take chain 1 E8A: the percent of parent is ~17 % binding.

As for chain 1 D15A, the percent of parent was ~110 % binding.

On to chain 1 Y9D, for which the percent of parent was ~13 % binding.

Consider chain 1 Y9K, for which the percent of parent is ~21 % binding.

With chain 1 S6E, the percent of parent is ~88 % binding.

The next assay covers variants of B2. Kind of assay: clonal phage ELISA; ratio of A450 on immobilized GST-merlin to A450 on GST, normalized to 100% of WT peptide; no-peptide phage control est. 32%; read off a plot.
chain 1 P14K: the percent of parent was ~50 % binding.

For chain 1 Y2K, the percent of parent was ~16 % binding.

chain 1 D8A: the percent of parent was ~110 % binding.

Turning to chain 1 D8K, the percent of parent is ~94 % binding.

For chain 1 V16K, the percent of parent is ~61 % binding.

chain 1 A6K: the percent of parent was ~59 % binding.

With chain 1 F1K, the percent of parent was ~29 % binding.

chain 1 L15K: the percent of parent is ~16 % binding.

As to chain 1 R13A, the percent of parent was ~97 % binding.

Take chain 1 D3K: the percent of parent was ~33 % binding.

Take chain 1 D3A: the percent of parent is ~29 % binding.

Take chain 1 L4K: the percent of parent was ~29 % binding.

As to chain 1 S7A, the percent of parent is ~120 % binding.

As to chain 1 N9A, the percent of parent was ~93 % binding.

In the case of chain 1 W5K, the percent of parent is ~31 % binding.

On to chain 1 D12A, for which the percent of parent is ~24 % binding.

Regarding chain 1 P10K, the percent of parent was ~26 % binding.

On to chain 1 L11K, for which the percent of parent is ~14 % binding.
